Reference: patent publication US20260216242A1 (ALMAC DISCOVERY, published 2026)

T1: human ALPL (tissue non-specific alkaline phosphatase) expressed on the surface of CHO cells (human, UniProt P05186 18-501)
T1 sequence (looked up): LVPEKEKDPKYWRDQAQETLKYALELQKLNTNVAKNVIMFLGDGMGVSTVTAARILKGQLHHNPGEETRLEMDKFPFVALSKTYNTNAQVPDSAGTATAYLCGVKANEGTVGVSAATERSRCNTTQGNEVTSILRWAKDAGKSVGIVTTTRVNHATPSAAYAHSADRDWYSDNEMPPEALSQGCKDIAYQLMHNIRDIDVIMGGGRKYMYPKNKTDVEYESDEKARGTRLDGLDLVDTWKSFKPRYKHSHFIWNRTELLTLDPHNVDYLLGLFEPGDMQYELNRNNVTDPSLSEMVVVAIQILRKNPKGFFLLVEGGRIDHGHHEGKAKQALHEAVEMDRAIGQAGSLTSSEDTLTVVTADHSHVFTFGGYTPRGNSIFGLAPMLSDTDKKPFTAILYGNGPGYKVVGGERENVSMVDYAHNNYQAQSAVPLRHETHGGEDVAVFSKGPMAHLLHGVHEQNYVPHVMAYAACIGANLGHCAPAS

T2: human ALPI (intestinal alkaline phosphatase) expressed on the surface of CHO cells (human, UniProt P09923 20-503)
T2 sequence (looked up): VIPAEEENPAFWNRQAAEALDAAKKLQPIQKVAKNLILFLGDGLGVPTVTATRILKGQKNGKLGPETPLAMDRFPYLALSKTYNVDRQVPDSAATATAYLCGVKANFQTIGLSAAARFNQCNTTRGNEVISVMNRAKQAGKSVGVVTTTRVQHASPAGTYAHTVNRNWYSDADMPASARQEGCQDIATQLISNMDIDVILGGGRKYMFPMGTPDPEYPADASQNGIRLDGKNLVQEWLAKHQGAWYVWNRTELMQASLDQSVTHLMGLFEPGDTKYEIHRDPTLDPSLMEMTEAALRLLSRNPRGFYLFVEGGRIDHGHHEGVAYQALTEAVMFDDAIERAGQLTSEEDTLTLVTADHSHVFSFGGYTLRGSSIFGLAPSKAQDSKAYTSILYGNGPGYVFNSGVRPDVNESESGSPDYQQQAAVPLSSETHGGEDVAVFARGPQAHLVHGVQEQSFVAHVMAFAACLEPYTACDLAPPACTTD


Legend:
[1] = target: T1, human ALPL (tissue non-specific …); assay: cell-based or functional assay
[2] = target: T3, human ALPPL2 (alkaline phosphatase, germ cell type) expressed on the surface of CHO cells (human, UniProt P10696 20-503); assay: cell-based or functional assay
[3] = target: T2, human ALPI (intestinal alkaline …); assay: cell-based or functional assay
[4] = target: T2, human ALPI (intestinal alkaline …); assay: flow cytometry on CHO-ALPI cells
[5] = target: T4, human ALPP (alkaline phosphatase, placental type) expressed on the surface of CHO cells (human, UniProt P05187 23-506); assay: flow cytometry on CHO-ALPP cells, apparent KD (KDapp)
T4 construct: also called CHO-ALPP; hALPP
Experimental: (§1) Biparatopic VHH-hFc drug conjugates were assessed for human ALPP, ALPPL2, ALPI and ALPL cell-surface binding by flow cytometry. Binders were screened on CHO cells stably expressing human ALPP, ALPPL2, ALPI or ALPL.
(§2) Cell surface binding of test agents to hALPP isoforms was characterized in four CHO-ALPP isoform transfectant cell lines (CHO-ALPP, CHO-ALPPL2, CHO-ALPI and CHO-ALPL) and the resulting KDapp values determined. Adherent cells were detached from tissue culture flasks by incubating with 0.1% EDTA/PBS solution at 37° C. for […] or until cells detached easily. Cells were re-suspended in ice-cold PBS/2% FCS in 15 ml tubes and centrifuged at 1700 rpm for 5 mins at 4° C. Supernatant was removed and the cell pellet re-suspended in PBS/2% FCS. […] Cells were incubated with 100 μl of test agents at a range of concentrations, plus controls for 1 hr on ice. The sample plate was centrifuged at 1700 rpm for 5 mins at 4° C. The supernatant was removed, and a wash performed by re-suspending the cell pellets in 0.25 mL of ice-cold PBS/2% FCS using a multichannel pipette. Samples were again centrifuged at 1700 rpm for 5 min at 4° C. Supernatant was removed and two further washes performed as described. After the final wash and centrifugation step, excess liquid was removed by blotting the plate on tissue paper. Binding of VHH-hFc agents was determined by adding 100 μl of Fitc-anti-human Ab (ThermoFisher) and incubating for 30 mins on ice in the dark. Wash steps were performed as described previously. All cell pellets were finally re-suspended in 0.28 ml of ice-cold PBS/2% FCS and left on ice in the dark prior to analysis on a Merck-Millipore Guava EasyCyte HT or Thermo Fisher Attune N×T flow cytometer.

[6] = target: T1, human ALPL (tissue non-specific …); assay: flow cytometry, CHO-ALPL cells
[7] = target: T3, human ALPPL2 (alkaline phosphatase, …); assay: flow cytometry on CHO-ALPPL2 cells, apparent KD (KDapp)
Experimental: as §1, §2

T4 sequence (P05187 23-506 limits assumed): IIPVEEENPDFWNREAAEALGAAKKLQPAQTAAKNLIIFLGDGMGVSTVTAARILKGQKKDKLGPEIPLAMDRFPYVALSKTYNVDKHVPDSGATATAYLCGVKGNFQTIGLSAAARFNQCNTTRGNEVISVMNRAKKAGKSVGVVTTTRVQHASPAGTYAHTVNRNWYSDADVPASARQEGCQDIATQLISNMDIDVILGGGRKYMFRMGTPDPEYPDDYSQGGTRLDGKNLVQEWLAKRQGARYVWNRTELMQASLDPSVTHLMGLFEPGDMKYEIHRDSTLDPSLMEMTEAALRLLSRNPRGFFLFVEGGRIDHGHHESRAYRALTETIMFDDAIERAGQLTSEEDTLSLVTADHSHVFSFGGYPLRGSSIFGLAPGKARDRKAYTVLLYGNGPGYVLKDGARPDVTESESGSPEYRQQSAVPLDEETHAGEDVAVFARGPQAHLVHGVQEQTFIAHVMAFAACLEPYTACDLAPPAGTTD
T3 sequence (P10696 20-503): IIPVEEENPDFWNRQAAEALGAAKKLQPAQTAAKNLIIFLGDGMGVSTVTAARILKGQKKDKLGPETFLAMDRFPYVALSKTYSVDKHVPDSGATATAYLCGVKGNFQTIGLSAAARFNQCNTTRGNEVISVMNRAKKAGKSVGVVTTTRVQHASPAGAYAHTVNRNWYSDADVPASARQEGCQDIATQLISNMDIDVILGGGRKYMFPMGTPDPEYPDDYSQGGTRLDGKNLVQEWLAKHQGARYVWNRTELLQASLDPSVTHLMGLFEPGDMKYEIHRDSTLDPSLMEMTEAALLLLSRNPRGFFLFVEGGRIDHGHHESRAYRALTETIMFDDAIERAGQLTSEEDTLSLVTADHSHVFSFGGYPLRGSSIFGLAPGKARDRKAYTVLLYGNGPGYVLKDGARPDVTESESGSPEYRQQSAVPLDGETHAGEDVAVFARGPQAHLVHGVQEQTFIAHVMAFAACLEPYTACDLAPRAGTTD

Binder | IC50 at 96 h, cell-killing of CHO-ALPL cells [1] [nM] | IC50 at 96 h, cell-killing of CHO-ALPPL2 cells [2] [nM] | IC50 at 96 h, cell-killing of CHO-ALPI cells [3] [nM] | MFI on CHO-ALPI cells at 350 nM as percent of MFI on CHO-ALPP cells (KDapp not-determinable) [4] [%] | Kd [5] [nM] | binding result [6] | Kd [7] [nM] | IC50 at 96 h, cell-killing of CHO-ALPL cells (estimated from data extrapolation) [1] [nM] | IC50 at 96 h, cell-killing of CHO-ALPI cells (estimated from data extrapolation) [3] [nM]
A06 E10-hFc (S239/442C T366Y/Y407T), [G4S]3 linker, MC-vc-PAB-MMAE conjugate, #664 (Fc fusion, DAR 4, MC-vc-PAB-MMAE on Cys of S239C and S442C (EU numbering), Biparatopic knob-into-hole VHH-hFc heterodimer, DAR 4; The assignment of T366Y to the first named VHH and Y407T to the second follows the order of the name; No paragraph spells out this pair; also called A06-E10 hFc-vcPAB-MMAE; A06-E10hFc-vc-MMAE) chain 1: QVHLVESGGGLVQAGGSLRLSCAASGRTFLSMGWFRQAPGKEREFVAAISWTGGSTGYADSVKGRFTISRESDKETMYLQMNSLKPEDTAVYYCAARGDVYYGGDDATRYKYWGQGTQVTVSSGGGGSGGGGSGGGGSEPKSSDKTHTCPPCPAPELLGGPCVFLFPPKPKDTLMISRTPEVTCVVVDVSHEDPEVKFNWYVDGVEVHNAKTKPREEQYNSTYRVVSVLTVLHQDWLNGKEYKCKVSNKALPAPIEKTISKAKGQPREPQVYTLPPSRDELTKNQVSLYCLVKGFYPSDIAVEWESNGQPENNYKTTPPVLDSDGSFFLYSKLTVDKSRWQQGNVFSCSVMHEALHNHYTQKSLCLSPGK chain 2: QVQLVESGGGLVQAGGSLRLSCAVSGRALSDYNIGWFRQAPGKEREFVARKTWDGSSTRYDDSVKGRFTVSIEDAKNTAYLQMSSLKTEDTAVYYCAAGRYSRARGWEYDYWGQGTQVTVSSGGGGSGGGGSGGGGSEPKSSDKTHTCPPCPAPELLGGPCVFLFPPKPKDTLMISRTPEVTCVVVDVSHEDPEVKFNWYVDGVEVHNAKTKPREEQYNSTYRVVSVLTVLHQDWLNGKEYKCKVSNKALPAPIEKTISKAKGQPREPQVYTLPPSRDELTKNQVSLTCLVKGFYPSDIAVEWESNGQPENNYKTTPPVLDSDGSFFLTSKLTVDKSRWQQGNVFSCSVMHEALHNHYTQKSLCLSPGK | > 1000 | 7.3 | > 1000 | ≤ 1 | 8.5 | no binding (tested: 350 nM (highest concentration)) | 3.7 | – | –
A06 F05-hFc (S239/442C T366Y/Y407T), [G4S]3 linker, MC-vc-PAB-MMAE conjugate, #665 (Fc fusion, DAR 4, MC-vc-PAB-MMAE on Cys of S239C and S442C (EU numbering), Biparatopic knob-into-hole VHH-hFc heterodimer, DAR 4; also called A06-F05 hFc-vcPAB-MMAE; A06-F05 hFc-vc-MMAE) chain 1: QVHLVESGGGLVQAGGSLRLSCAASGRTFLSMGWFRQAPGKEREFVAAISWTGGSTGYADSVKGRFTISRESDKETMYLQMNSLKPEDTAVYYCAARGDVYYGGDDATRYKYWGQGTQVTVSSGGGGSGGGGSGGGGSEPKSSDKTHTCPPCPAPELLGGPCVFLFPPKPKDTLMISRTPEVTCVVVDVSHEDPEVKFNWYVDGVEVHNAKTKPREEQYNSTYRVVSVLTVLHQDWLNGKEYKCKVSNKALPAPIEKTISKAKGQPREPQVYTLPPSRDELTKNQVSLYCLVKGFYPSDIAVEWESNGQPENNYKTTPPVLDSDGSFFLYSKLTVDKSRWQQGNVFSCSVMHEALHNHYTQKSLCLSPGK chain 2: QVQLVESGGGLVQAGGSLRLSCAASGRAFGDYNIGWFRQAPGKEREFVARRTWDGSSTRYDDSVKGRFTVSIDNAKNTAYLQMNSLKTEDTAVYYCAAGRYSRVRGWEYDYWGQGTQVTVSSGGGGSGGGGSGGGGSEPKSSDKTHTCPPCPAPELLGGPCVFLFPPKPKDTLMISRTPEVTCVVVDVSHEDPEVKFNWYVDGVEVHNAKTKPREEQYNSTYRVVSVLTVLHQDWLNGKEYKCKVSNKALPAPIEKTISKAKGQPREPQVYTLPPSRDELTKNQVSLTCLVKGFYPSDIAVEWESNGQPENNYKTTPPVLDSDGSFFLTSKLTVDKSRWQQGNVFSCSVMHEALHNHYTQKSLCLSPGK | > 1000 | 7.9 | > 1000 | ≤ 1 | 9.8 | no binding (tested: 350 nM (highest concentration)) | 4.9 | – | –
A06 E06-hFc (S239/442C T366Y/Y407T), [G4S]1 linker, MC-vc-PAB-MMAE conjugate, #710 (Fc fusion, DAR 4, MC-vc-PAB-MMAE on Cys of S239C and S442C (EU numbering), Biparatopic knob-into-hole VHH-hFc heterodimer, DAR 4; The assignment of T366Y to the first named VHH and Y407T to the second follows the order of the name; No paragraph spells out this pair; also called A06-E06-hFc-vcPAB-MMAE; A06-E06 hFc-vc-MMAE) chain 1: QVHLVESGGGLVQAGGSLRLSCAASGRTFLSMGWFRQAPGKEREFVAAISWTGGSTGYADSVKGRFTISRESDKETMYLQMNSLKPEDTAVYYCAARGDVYYGGDDATRYKYWGQGTQVTVSSGGGGSEPKSSDKTHTCPPCPAPELLGGPCVFLFPPKPKDTLMISRTPEVTCVVVDVSHEDPEVKFNWYVDGVEVHNAKTKPREEQYNSTYRVVSVLTVLHQDWLNGKEYKCKVSNKALPAPIEKTISKAKGQPREPQVYTLPPSRDELTKNQVSLYCLVKGFYPSDIAVEWESNGQPENNYKTTPPVLDSDGSFFLYSKLTVDKSRWQQGNVFSCSVMHEALHNHYTQKSLCLSPGK chain 2: QVHLVESGGGLVQAGGSLRLSCAASRRSFSEYAMGWFRQAPGKEREFVAAIGWSGVIEYADSVKGRFTISRDNAKDTVYLQMNSLKPEDTAVYYCAAGLGIRVVSQTPAYWGQGTQVTVSSGGGGSEPKSSDKTHTCPPCPAPELLGGPCVFLFPPKPKDTLMISRTPEVTCVVVDVSHEDPEVKFNWYVDGVEVHNAKTKPREEQYNSTYRVVSVLTVLHQDWLNGKEYKCKVSNKALPAPIEKTISKAKGQPREPQVYTLPPSRDELTKNQVSLTCLVKGFYPSDIAVEWESNGQPENNYKTTPPVLDSDGSFFLTSKLTVDKSRWQQGNVFSCSVMHEALHNHYTQKSLCLSPGK | – | 18.1 | – | ≤ 1 | 11 | no binding (tested: 350 nM (highest concentration)) | 5.6 | ~699 | ~846
A06 E10-hFc (S239/442C T366Y/Y407T), [G4S]1 linker, MC-vc-PAB-MMAE conjugate, #711 (Fc fusion, DAR 4, MC-vc-PAB-MMAE on Cys of S239C and S442C (EU numbering), Biparatopic knob-into-hole VHH-hFc heterodimer, DAR 4; The assignment of T366Y to the first named VHH and Y407T to the second follows the order of the name; No paragraph spells out this pair; also called A06-E10-hFc-vcPAB-MMAE; A06-E10 hFc-vc-MMAE) chain 1: QVHLVESGGGLVQAGGSLRLSCAASGRTFLSMGWFRQAPGKEREFVAAISWTGGSTGYADSVKGRFTISRESDKETMYLQMNSLKPEDTAVYYCAARGDVYYGGDDATRYKYWGQGTQVTVSSGGGGSEPKSSDKTHTCPPCPAPELLGGPCVFLFPPKPKDTLMISRTPEVTCVVVDVSHEDPEVKFNWYVDGVEVHNAKTKPREEQYNSTYRVVSVLTVLHQDWLNGKEYKCKVSNKALPAPIEKTISKAKGQPREPQVYTLPPSRDELTKNQVSLYCLVKGFYPSDIAVEWESNGQPENNYKTTPPVLDSDGSFFLYSKLTVDKSRWQQGNVFSCSVMHEALHNHYTQKSLCLSPGK chain 2: QVQLVESGGGLVQAGGSLRLSCAVSGRALSDYNIGWFRQAPGKEREFVARKTWDGSSTRYDDSVKGRFTVSIEDAKNTAYLQMSSLKTEDTAVYYCAAGRYSRARGWEYDYWGQGTQVTVSSGGGGSEPKSSDKTHTCPPCPAPELLGGPCVFLFPPKPKDTLMISRTPEVTCVVVDVSHEDPEVKFNWYVDGVEVHNAKTKPREEQYNSTYRVVSVLTVLHQDWLNGKEYKCKVSNKALPAPIEKTISKAKGQPREPQVYTLPPSRDELTKNQVSLTCLVKGFYPSDIAVEWESNGQPENNYKTTPPVLDSDGSFFLTSKLTVDKSRWQQGNVFSCSVMHEALHNHYTQKSLCLSPGK | – | 14.1 | – | ≤ 1 | 13.4 | no binding (tested: 350 nM (highest concentration)) | 7.6 | ~597 | ~673
